Source: publication PMC5993529

Assays:
[1] = biological target: Recombinant human VEGFR2 (human) (UniProt P35968); assay: SPR
[2] = biological target: Recombinant human VEGFR1 (human) (UniProt P17948); assay: SPR
Chain of UniProt P17948 (P17948 27-758): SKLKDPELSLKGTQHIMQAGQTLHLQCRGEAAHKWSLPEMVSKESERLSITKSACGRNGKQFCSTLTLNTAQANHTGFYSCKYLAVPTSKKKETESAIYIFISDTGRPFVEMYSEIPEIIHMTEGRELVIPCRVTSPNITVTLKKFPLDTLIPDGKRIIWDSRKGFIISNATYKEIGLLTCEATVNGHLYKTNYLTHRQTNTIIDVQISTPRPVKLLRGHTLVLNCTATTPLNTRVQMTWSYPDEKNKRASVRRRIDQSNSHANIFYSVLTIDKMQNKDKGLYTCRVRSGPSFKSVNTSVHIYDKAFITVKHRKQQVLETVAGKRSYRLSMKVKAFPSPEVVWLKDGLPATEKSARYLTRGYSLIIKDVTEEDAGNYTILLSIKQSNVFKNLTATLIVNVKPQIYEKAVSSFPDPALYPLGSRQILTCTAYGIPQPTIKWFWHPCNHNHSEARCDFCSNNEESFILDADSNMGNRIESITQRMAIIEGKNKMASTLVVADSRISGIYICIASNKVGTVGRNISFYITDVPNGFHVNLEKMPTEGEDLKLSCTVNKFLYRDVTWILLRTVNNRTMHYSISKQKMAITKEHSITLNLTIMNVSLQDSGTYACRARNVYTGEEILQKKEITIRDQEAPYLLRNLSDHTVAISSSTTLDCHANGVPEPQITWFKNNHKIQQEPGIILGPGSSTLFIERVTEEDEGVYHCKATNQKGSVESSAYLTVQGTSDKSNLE

Chain of UniProt P35968 (P35968 20-764): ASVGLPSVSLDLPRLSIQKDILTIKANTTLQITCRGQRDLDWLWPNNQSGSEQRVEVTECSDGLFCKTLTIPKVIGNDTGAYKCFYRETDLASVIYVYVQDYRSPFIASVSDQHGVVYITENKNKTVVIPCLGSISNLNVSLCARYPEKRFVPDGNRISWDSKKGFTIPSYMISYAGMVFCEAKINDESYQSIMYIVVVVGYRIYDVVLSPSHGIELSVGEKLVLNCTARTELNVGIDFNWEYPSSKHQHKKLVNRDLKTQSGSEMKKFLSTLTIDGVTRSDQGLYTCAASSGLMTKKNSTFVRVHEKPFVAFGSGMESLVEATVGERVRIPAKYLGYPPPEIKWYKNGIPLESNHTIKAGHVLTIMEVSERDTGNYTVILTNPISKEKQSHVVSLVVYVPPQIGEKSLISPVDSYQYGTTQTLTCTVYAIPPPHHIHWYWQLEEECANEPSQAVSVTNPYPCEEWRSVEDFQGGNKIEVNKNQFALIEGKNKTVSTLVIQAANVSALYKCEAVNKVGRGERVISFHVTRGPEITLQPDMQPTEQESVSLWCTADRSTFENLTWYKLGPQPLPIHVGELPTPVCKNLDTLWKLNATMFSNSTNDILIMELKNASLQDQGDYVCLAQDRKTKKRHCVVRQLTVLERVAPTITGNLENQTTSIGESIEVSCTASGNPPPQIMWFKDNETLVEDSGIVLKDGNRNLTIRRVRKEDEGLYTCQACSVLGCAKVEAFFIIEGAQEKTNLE

## Recombinant human VEGFA (from UniProt P15692 1-395) (ligand)
[1]
  Kd: 0.398 nM
[2]
  Kd: 0.0231 nM
